# Reference: patent US7074765B2, “Synthetic peptide analogs of Arg-Pro-Pro-Gly-Phe as selective inhibitors of thrombin and thrombin activation of protease activated receptors 1 and 4” (The Regents of the University of Michigan, priority 2003, dated 2006)
# Read-outs that look alike come from different tables or passages of the source. Ends that are not written are not given here.
# Columns and labels:
# [1] = biological target: T1, SILPAPRGYPGQ, thrombin binding and cleaving region on human PAR4 (Homo sapiens, UniProt Q96RI0); assay: Inhibition of SILPAPRGYPGQ-biotin binding to RPPGC; details: 10 micromolar biotinylated-SIL12; 0.001 to 5 mM peptide
# T1 construct: host or cells: synthetic peptide
# Experimental: Investigations were performed to determine if the compounds in the present invention interact with human PAR4. In FIG. 11, RPPGC (SEQ ID NO:10) was bound to plastic microtiter plates, After washing, biotinylated-[…] (SEQ ID NO:14) was incubated with the cuvette wells in the absence or presence of 0.001 to 5 mM RPPGF (SEQ ID NO:4), TH146, TH26, SIL12 (SEQ ID NO:9), or a scrambled peptide of RPPGF, FPRPG (Phe-Pro-Arg-Pro-Gly, SEQ ID NO:21). Peptide […]
# [2] = system: lipopolysaccharide-treated rats; details: infusion; cited from earlier work
# [3] = biological target: T2, recombinant protease activated receptor 1 extracellular domain (rPAR1EC) (Homo sapiens, UniProt P25116); assay: Inhibition of RPPGF-biotin binding to rPAR1EC; details: 5 mM peptide, 50 μM RPPGF-biotin (FIG. 7); listed in decreasing order
# T2 construct: A portion of the extracellular domain of human PAR1 (Ala^26-Ser^99) (rPAR1EC) was expressed in Escherichia coli; His10-DDDDK (pET19b) (N); made in house; host or cells: E. coli BL21(DE3), pET19b
# T2 sequence (P25116 26-99): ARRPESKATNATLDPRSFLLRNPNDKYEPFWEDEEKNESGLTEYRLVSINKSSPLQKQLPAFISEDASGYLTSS
# [4] = system: normal human lung fibroblasts (NHLF); assay: α-thrombin-induced calcium mobilization in fibroblasts; type: cell-based; details: 0.1 mM peptide; α-thrombin-induced calcium mobilization in fibroblasts
# Experimental: The second assay developed to assess peptides from the combinatorial libraries uses inhibition of α-thrombin-induced calcium mobilization in fibroblasts. Normal human lung fibroblasts (NHLF) were purchased from Clonetics, San Diego, Calif., an affiliate of Bio-Wittaker, Walkersville, Md. The cytoplasmic free Ca^2+ concentration ([Ca^2+]i) was measured using the fluorescent Ca^2+ indicator fura-2 (Molecular Probes, Inc., Eugene, Oreg.). Suspension of fibroblasts in Hepes-Tyrode's buffer were loaded with fura-2 by incubation at 37° C. with 2 μM fura-2/acetoxymethyl ester for 45 minutes according to the method of Rasmussen et al., J. Biol. Chem. 268, 14322 (1993). The labeled fibroblasts were separated from excess probe by washing by centrifugation at 1000 rpm (180×g). Aliquots of the labeled fibroblasts were transferred into a quartz cuvette with a magnetic stirrer, which was then placed in a thermostatically controlled chamber at 37° C. in a fluorescence spectrophotometer (Perkin-Elmer LS50B spectrofluorometer, Chicago, Ill.). Reagents, test peptide, and α-thrombin (0.25–2 nM), were sequentially added directly to the cuvette. The excitation wavelengths varied between 340 and 380 nm. Fluorescence was measured by recording emitted light at 510 nm as reported by Fisher et al., Mol Pharm. 35, 195 (1989). The minimum emission was determined on a solubilized fibroblast sample in the presence of 10 mM EDTA; maximum emission was determined on the same sample with 10 mM Ca^2+ added. The intrafibroblast free Ca^2+ concentration was calculated by the method of Grykiewicz et al., J. Biol. Chem. 260, 3440 (1985). […] The KD for fura-2 was assumed to be 224 nM. Rmax and Rmin are the maximum and minimum fluorescence ratios measured at the end of the experiment, respectively; Sf2 and Sb2 are the fluorescence values at 380 nm in the absence and presence of saturating [Ca^2+], respectively. The reaction was monitored for 3–5 minutes.
# [5] = system: platelet activation and deposition; details: ex vivo balloon injury; similar to aspirin; cited from earlier work
# coronary thrombosis = details: canine electrolytic injury model; similar to aspirin treatment; cited from earlier work
# [6] = biological target: T3, recombinant extracellular fragment of human protease activated receptor 4 (rPAR4EC) (Homo sapiens, UniProt Q96RI0); assay: Inhibition of RPPGF-biotin binding to rPAR4EC; details: 5 mM peptide; 50 μM RPPGF-biotin
# T3 construct: starting with Gly^18, the first amino acid after the signal peptide is removed, and finishing with Arg^78; made in house; host or cells: E. coli BL21, pET19b-PAR4
# T3 sequence (Q96RI0 18-78): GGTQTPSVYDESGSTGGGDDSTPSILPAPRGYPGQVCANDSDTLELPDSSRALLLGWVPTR
# Text: The extracellular fragment of human PAR4 has been expressed in bacteria. Human erythroleukemia (HEL) cells were used as a source for PAR4 mRNA. The level of PAR4 mRNA was substantially higher in HEL cells than washed human platelets. […] These primers give a 204 basepair fragment which code for a 61 amino acid hPAR4 protein starting with Gly^18, the first amino acid after the signal peptide is removed, and finishing with Arg^78, the last amino acid of the extracellular fragment (Xu et al. Proc. Natl. Acad. Sci. 95, 6642–6646 (1998)). The pET19b-PAR4 vector after cloning was used to transform BL21 cells to express the recombinant protein. The expressed recombinant protein was purified on a DEAE Sephadex followed by a nickel affinity column (the recombinant protein has a 10 His-tag on its amino terminal end). The isolated, recombinant extracellular domain of PAR4 (rPAREC) is about 15 kDa on 16.5% Tris-Tricine SDS-PAGE. The recombinant protein is recognized as being human PAR4 by detection with an antibody prepared from a peptide (S^41[…]^52) (SEQ ID NO:9) from human PAR4EC. Recombinant PAR4EC was linked to microtiter plate cuvette wells. Goat polyclonal antibody to human PAR1, PAR3, or PAR4 was incubated with the coated microtiter plate cuvette wells and antibody binding was detected. Only antibody to PAR4 detected rPAR4EC linked to the microtiter plate wells. […]
# [7] = biological target: T4, α-thrombin cleavage of recombinant extracellular fragment of human PAR1 (rPAR1EC) (Homo sapiens, UniProt P00734); assay: Inhibition of α-thrombin-induced cleavage of rPAR1EC; type: biochemical
# T4 construct: A portion of the extracellular domain of human PAR1 (Ala^26-Ser^99) (rPAR1EC) was expressed in Escherichia coli; with 1 nM of α-thrombin or 0.5 μg/mL thrombocytin (16.7 nM); His10-DDDDK (pET19b) (N); made in house; host or cells: E. coli BL21(DE3), pET19b (rPAR1EC)
# Experimental: (§1) Thrombocytin is a snake venom enzyme that activates platelets by cleaving PAR1 at the thrombin cleavage site (Santos et al., FEBS Letters. 18, 3570–3577 (2000)). […] The ability of MAP4-rOicPGF to block thrombocytin cleavage of rPAR1EC was performed as follows. One μg of rPAR1EC in 0.01 mM Tris-HCL, 0.2 M NaCl, pH 8.0 was incubated at 37° C. for 15 min or 45 min with 1 nM of α-thrombin or 0.5 μg/mL thrombocytin (16.7 nM), respectively, in the absence or presence of 0.025 to 1 mM MAP4-rOicPGF. The reaction mixture was separated on SDS-PAGE and stained with Coomassie Brilliant Blue. The cleaved gel images were scanned using the software Scion Image, ScionCorp, Frederick, Md.
# cyclic flow variations = details: Folt's model, canine; similar degree as aspirin or clopidogrel; cited from earlier work
# mouse platelets = details: cited from earlier work
# thrombin = thrombin (Homo sapiens, UniProt P00734); details: read-out: Ki (retrobinders to the active site of thrombin); cited from earlier work
# mouse carotid artery = details: cited from earlier work
# [8] = biological target: T5, thrombocytin cleavage of recombinant human PAR1 extracellular domain (Homo sapiens, UniProt P25116); assay: Inhibition of thrombocytin-induced cleavage of rPAR1EC; type: biochemical; details: 16.7 nM thrombocytin, 45 min, 37° C.; below concentration that blocks the enzyme's proteolytic activity
# T5 construct: A portion of the extracellular domain of human PAR1 (Ala^26-Ser^99) (rPAR1EC) was expressed in Escherichia coli; His10-DDDDK (pET19b) (N); made in house; host or cells: E. coli BL21(DE3), pET19b (rPAR1EC)
# T5 sequence (P25116 26-99): T2 sequence (P25116 26-99)
# Experimental: as §1
Substance,blocking of biotinylated-SILPAPRGYPGQ binding to RPPGC [1],time to death [2],blocking of RPPGF-biotin binding to rPAR1EC by peptides [3],Ca^2^+ % Inhibition At 0.1 mM Peptide [4],platelet activation and deposition [5],effect on coronary thrombosis (coronary thrombosis),blocking of RPPGF-biotin binding to rPAR4EC [6],effect on α-thrombin cleavage of rPAR1EC [7],effect on cyclic flow variations (cyclic flow variations),mouse platelet aggregation (mouse platelets),Ki (thrombin),time to thrombosis of the mouse carotid artery (mouse carotid artery),"effect on α-thrombin cleavage of rPAR1EC ([7]; 1 nM α-thrombin, 15 min, 37° C.)",concentration that blocks thrombocytin cleavage of rPAR1EC [8]
"rPPGF (RPPGF; not fully specified (residue 1); printed as rPPGF) [Arg-Pro-Pro-Gly-Phe, peptide of the RPPGF analog library]",blocked,delays the time to death,blocked,No Effect,reduced platelet activation and deposition,prevents coronary thrombosis,block,prevents these enzymes from cleaving rPAR1EC,,,,,,
"β-Ala-Lys-2Lys-4(Arg-Pro-Pro-Gly-Phe) (RPPGF; also: four copies on beta-Ala-Lys-2Lys-4 branched core) [MAP4-RPPGF, four-branched peptide of RPPGF on a β-alanine-lysine core]",,,blocked,,,,,,prevents cyclic flow variations,inhibits mouse platelet aggregation,1750 µM,delays the time to thrombosis,prevents these enzymes from cleaving rPAR1EC,0.2 to 0.5 mM
